In article PMC4945072, “GNG Motifs Can Replace a GGG Stretch during G-Quadruplex Formation in a Context Dependent Manner”:

Target: Nucleolin 284-710 (UniProt P19338 284-710)
Experiment: EMSA; 100 mM KCl; EMSA: oligo folded in binding buffer (composition not given) + 100 mM KCl, 37 C 1 h; nucleolin 100 ng, 4 C 2 h, 8% native gel + 100 mM KCl at 4 C; BG4 37 C 30 min, 6% native gel + 100 mM KCl at RT; CD: 1x PBS + 100 mM KCl
Settings: protein: recombinant, tags: His, label: 5'-32P (EMSA)

Chain of Nucleolin 284-710 (P19338 284-710): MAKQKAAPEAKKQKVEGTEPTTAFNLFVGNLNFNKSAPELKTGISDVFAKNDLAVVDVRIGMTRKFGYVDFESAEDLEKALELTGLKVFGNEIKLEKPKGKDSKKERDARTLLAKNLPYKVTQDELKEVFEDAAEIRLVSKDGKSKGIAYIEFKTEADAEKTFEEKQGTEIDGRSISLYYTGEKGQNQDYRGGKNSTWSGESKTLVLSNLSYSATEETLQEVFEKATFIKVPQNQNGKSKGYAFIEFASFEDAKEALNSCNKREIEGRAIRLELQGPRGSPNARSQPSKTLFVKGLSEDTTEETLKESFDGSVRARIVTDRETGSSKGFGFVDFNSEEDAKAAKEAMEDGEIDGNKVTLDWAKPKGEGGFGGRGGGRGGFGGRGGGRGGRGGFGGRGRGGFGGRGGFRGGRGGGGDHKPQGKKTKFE

| Binder | binding result (intramolecular parallel G4, two G stretches plus GNG motifs) | binding result (single strand) |
| --- | --- | --- |
| GGAGGTTTCCGGGGGCGCGGGGCGGAGC (structured_DNA) [KD52 (SHOX G-rich strand)] | binds |  |
| GCTCCGCCCCGCGCCCCCGGAAACCTCC (ssDNA) [KD53 (C-rich reverse complement of KD52)] |  | no binding |
